Data taken from article PMC8288147.

Biological target: Hepatitis B Surface Antigen (HBsAg) SpyCatcher nanoparticles (Hepatitis B virus)
Assay: covalent SpyTag/SpyCatcher conjugation shown by reduced SDS-PAGE

RBD-SpyTag (SARS-CoV-2 receptor binding domain fused to the SpyTag peptide) (from UniProt P0DTC2) (domain or fragment)
fraction unconjugated: < 20%
